Square brackets hold non-standard residues; d marks the D form. Phe(4-I) = N[C@@H](Cc1ccc(I)cc1)C(=O)O
Assays:
[1] = target: mouse melanocortin-3 receptor (mouse) (UniProt P33033); test: cell-based or functional assay
[2] = target: mouse melanocortin-4 receptor (mouse) (UniProt P56450); test: cell-based or functional assay
[3] = target: mouse melanocortin-3 receptor (mouse) (UniProt P33033); test: 125I-NDP-MSH competitive displacement, HEK293 cells stably expressing mMC3R
[4] = target: mouse melanocortin-4 receptor (mouse) (UniProt P56450); test: 125I-NDP-MSH competitive displacement, HEK293 cells stably expressing mMC4R
[5] = target: mouse melanocortin-4 receptor (mouse) (UniProt P56450); test: 125I-NDP-MSH competitive displacement, HEK293 cells stably expressing mMC4R; here negative = weaker binder than SKY4-48-1

Sequence of mouse melanocortin-4 receptor (mouse) (P56450 whole entry): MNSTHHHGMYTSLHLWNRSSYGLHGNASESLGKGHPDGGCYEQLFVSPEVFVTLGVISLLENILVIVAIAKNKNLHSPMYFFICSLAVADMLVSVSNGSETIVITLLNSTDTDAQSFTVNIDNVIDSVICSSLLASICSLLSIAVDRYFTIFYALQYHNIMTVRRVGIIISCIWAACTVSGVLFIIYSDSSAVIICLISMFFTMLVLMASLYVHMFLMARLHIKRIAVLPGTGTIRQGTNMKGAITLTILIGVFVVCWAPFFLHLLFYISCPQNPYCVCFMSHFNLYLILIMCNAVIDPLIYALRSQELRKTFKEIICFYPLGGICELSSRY
Sequence of mouse melanocortin-3 receptor (mouse) (P33033 whole entry): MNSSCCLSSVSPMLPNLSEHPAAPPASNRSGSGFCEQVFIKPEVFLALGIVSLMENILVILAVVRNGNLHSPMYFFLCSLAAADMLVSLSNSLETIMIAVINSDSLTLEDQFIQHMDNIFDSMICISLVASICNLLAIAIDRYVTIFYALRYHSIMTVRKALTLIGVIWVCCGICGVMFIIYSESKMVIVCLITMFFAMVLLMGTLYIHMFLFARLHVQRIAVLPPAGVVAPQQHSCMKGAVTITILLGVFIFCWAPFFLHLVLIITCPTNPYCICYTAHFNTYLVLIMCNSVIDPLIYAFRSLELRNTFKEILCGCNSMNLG

B1: SKY5-122-2, Ac-DPhe-(pI)Phe-DArg-DHis-NH2 (peptide)
peptide: Ac-[dF][Phe(4-I)][dR][dH]-NH2
SMILES: CC(=O)N[C@H](Cc1ccccc1)C(=O)N[C@@H](Cc1ccc(I)cc1)C(=O)N[C@H](CCCNC(=N)N)C(=O)N[C@H](Cc1c[nH]cn1)C(N)=O
With B1 the Agonist Activity EC50 [1] was > 100 µM, the Antagonist Activity K [1] was 400 nM and the Antagonist Ki [1] was 0.398 µM. For the same binder, the pA2 (antagonist) [1] was 6.4 pA2, the Agonist Activity, % stimulation relative to maximum [2] was 16 % @ 100 µM and the Agonist, % of NDP-MSH maximal response [2] was 16 % @ 100 µM. The Antagonist Ki [2] was > 3.1 µM, the Fold Diff. (IC50 against SKY4-48-1) [3] was 14 fold and the IC50 [3] was 3.5 µM. It also gave an IC50 [4] of 39.5 µM and a Fold Diff. (IC50 against SKY4-48-1) [5] of -326 fold.

Source: US20170342107A1
